Columns and labels:
[1] = system: His-tagged cleavage resistant pro-NGF (point mutant, K-R cleavage site at 120,121 mutated to A-A)
[2] = system: T1, rat BDNF secreted by adenovirus-infected 293T or endothelial cells (proforms of 30 kDa and 28 kDa)
T1 sequence: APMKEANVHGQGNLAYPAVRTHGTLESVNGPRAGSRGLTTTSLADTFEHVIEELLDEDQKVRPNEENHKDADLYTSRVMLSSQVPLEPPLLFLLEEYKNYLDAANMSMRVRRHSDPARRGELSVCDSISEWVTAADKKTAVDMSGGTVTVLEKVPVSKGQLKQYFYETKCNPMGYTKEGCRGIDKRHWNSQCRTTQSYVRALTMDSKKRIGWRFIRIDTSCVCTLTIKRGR

B1: MMP-7 (enzyme, UniProt P09237 95-267, looked up, species assumed)
Matrilysin: YSLFPNSPKWTSKVVTYRIVSYTRDLPHITVDRLVSKALNMWGKEIPLHFRKVVWGTADIMIGFARGAHGDSYPFDGPGNTLAHAFAPGTGLGGDAHFDEDERWTDGSSLGINFLYAATHELGHSLGMGHSSDPNAVMYPTYGNGDPQNFKLSQDDIKGIQKLYGKRSNSRKK
- proteolytic cleavage, Western blot [1]: incubation of the pro-NGF with MMP-7 but not MMP-2, -3, or -9 resulted in cleavage of the 30 kD proform of NGF to the 17 kD form
- proteolytic cleavage in endothelial media, Western blot [2]: In endothelial media, only plasmin and MMP-7 appeared to cleave the large proform
- proteolytic cleavage, Western blot [2]: Treatment of the media with recombinant MMP7 resulted in a reduction in the high molecular weight isoforms of 30 kDa or 28 kDa, and the generation of a novel form of approximately 17 kDa

— patent publication US7507799
